assay: soluble on expression in E. coli; label from the status in PepcDB or PDB records

Sequence	soluble on expression in E. coli
MSLNEHKHNYNMKINCLLALALSASSLAAQDAVIRVDAGKVENKITPYLYGACMEDVNHEIYGGLYDQKIFGESFEEPVSMDNFIGFTRCEGVWKLQDGQLSVQAHPGAKLVYDDTQLSDGTVGVDLKFTNGTSSSNNAGLLLRVGEYGGGADNFDGYEVSLFADGKRLLLGKHLHNWQELKTTPVDVDPMQWNRMEVKLDGDELVILLNDCEVLRFEDRDTGLRNGKVAFRNWGADVSYRSLTIGSNTPVKLLTKATPQVSGMWDAFADLTAAAVYKQIADKPFHGRYAQEIEYLVGTGKVGIANRSLNRWGISVRQGEKKTGSLYLKGKAEVRVALQSVDGEKEYAVQCIRANAGDWKKYTFELTPDKTDENARLAIYLEEKGRIQVDMVTLMNGADRQFCGLPLRNDIGQAMVDQGLRFLRYGGTMVNAPEYRFKKMIGDRAERPPYKGHWYTYSTNGFGIEDFLHFCEKAGFMPAYAVNVEESAQDMADMIEYLNGSVDTKWGKKRAENGHPEPYGLKYLEIGNEEVIWGDIEADYQHYIDRFNDIYEAVHAKDPEVQFIHSAWWRPESPNMEKVFKALDGKAAYWDYHPWTDDLGSHVNIDRELTDMKAKFLKWNPKTSMRCAIFEENGNLHNVQRAIVHATVQNVVRRHGDFILTTCAANALQPYLQNDNGWDQGQIFFTSGQVWGMPTFYAQQMSSAHHHPLRLWSETVGELDMTATTNEARDEVILHVVNTSSEVRETQVSLSGFIPKGNMEIYTLSGELNDENLPDTPTWILPKATWKQAPGSDFTYSFPGYSYTIVVLKEGHHHHHH	soluble
MMQIRPVSDLRNKFSEIENIIISNKSPVFLTKNGHGSMVLMSLDMYESLTDNVENRLDEADFQAASTNVRLSHKDVFSDIRSKI	not soluble
HQPVSFGLSVRKSLPKGFSVETGLTYTLLSSDIKRQGDTKMQSQKLHYIGIPVRGNWNFLEKKYFTLYVSAGGMVEKCVYGKLADDKVNVKPLQFSVAGAVGAQFNATDHVGLYVEPGVSYFFDDGSKVQTIRKERPCNFNLQAGLRFTY	not soluble
MGSDKIHHHHHHMNLRRRGIVVSFHSNMVTVEDEETGERILCKLRGKFRLQNLKIYVGDRVEYTPDETGSGVIENVLHRKNLLTKPHVANVDQVILVVTVKMPETSTYIIDKFLVLAEKNELETVMVINKMDLYDEDDLRKVRELEEIYSGLYPIVKTSAKTGMGIEELKEYLKGKISTMAGLSGVGKSSLLNAINPGLKLRVSEVSEKLQRGRHTTTTAQLLKFDFGGYVVDTPGFANLEINDIEPEELKHYFKEFGDKQCFFSDCNHVDEPECGVKEAVENGEIAESRYENYVKMFYELLGRRKK	not soluble
MKTITLYLDPASLPALNQLMDFTQNNEDKTHPRIFGLSRFKIPDNIITQYQNIHFVELKDNRPTEALFTILDQYPGNIELNIHLNIAHSVQLIRPILAYRFKHLDRVSIQQLNLYDDGSMEYVDLEKEENKDISAEIKQAEKQLSHYLLTGKIKFDNPTIARYVWQSAFPVKYHFLSTDYFEKAEFLQPLKEYLAENYQKMDWTAYQQLTPEQQAFYLTLVGFNDEVKQSLEVQQAKFIFTGTTTWEGNTEVREYYAQQQLNLLNHFTQAEGDLFIGDHYKIYFKGHPRGGEINDIILNNAKNITNIPANISFEVLMMTGLLPDKVGGVASSLYFSLPKEKISHIIFTSNKQVKSKEDALNNPYVKVMRRLGIIDESQVIFWDSLKELGGG	soluble
MGHHHHHHSHMTSEQIPNRVLLFDGVCNLCNGAVQFIIKRDPDGLISFTSLQSETGQSLLKKSGLPTDRFDSFVFIEDGQVYTKSTAAIKVFRHLRGPWRLFVLFFAVPKPVRDMVYSFIAKNRYKWFGKKNECMLPSPSIKKRFLP	not soluble
MKYKIFASTTPQTEPVLQKLKQVLKGCEAVEKGFDYLFVLGGDGFFVSTVANYNCHNCRVVGINTGHLGFYTSFNEKDLDDNFLQKLQQCHFQRISLLEVSVNGQQHLVLNELAVYTNTAYPINIFIDGEAWEFYRGSGLLIGPRTGSTALAKSAKGAVIFPGIDVLQIIEMNPLLHPNQVTIQSPIILPKETQVEFVVKKAFNPQQFPTFYCDGRKLELPNADTTLALKLVQSTPMFNISLKTQDFINKLKSTFIKQS	soluble
MGSDKIHHHHHHMNVYEKGNGVILEGVTDFDPVHIFECGQCFRWHKQEDGSYTGVAKGRILNVKKENDKIYLNNTNLKEFNSIWYNYFDLGTDYTEIKNKLKNMDEYLNKATEFGWGIRILRQDGWEMLISFIISSNNRIPMIQRAIENLSRKFGKYIGEYEGNEYYAFPTPEELNKASQEEIRACQTGFRDKYIKSTTQAVIENNDEVSEYTNLSTEDCRKELLKFNGVGPKVCDCIALFGMQKYDSFPVDVWVKRVMQEFYIDEDMSLPKMRTYGIDKFKEMSGFAQQYLFYYARELGIGK	not soluble
AMGVPCVEDEDFIQALDKMMLENLQQRSGESVKVHQLDVAIPLHLKSQLRKGPPLGGGEGEAESADTMPFVMLTRKGNKQQFKILNVPMSSQLAANH	soluble
MKKVLLFAVVFSCSMWANAQRVTWATEAGLSAIQRTGYGECWRPSTRLGISADYNVNNMFSMKSGLYYTFRGYSVNNGGTYSNGDATWIENVSQTRHFLQVPILAKFSIHSNNSTKFFFEIGSYIGYCIKNHIDSNPYYLTMPSSGWVEGYPGVGESAEGGSNQFLYQHARNFDWGMTSAVGIENRRWTVKLQYEMSLGKESKNDNIGVNYNSLTLSVGYKLNVKQ	not soluble
MSLGKFTAVILDFETTGLSPGYGDRAIEIGAVLVRNNRIVDRFQSLMNPGKRVSGFIEEYTGITNEMLAKAPPAEQVMERFASFIAGHNLVAHNASFDRRFLDAELSRIGRRRTGDFACSMLAARRIYTNAPNHRLETLVSHLSLQTDGVFHRALADAEMTAQLWTAMIGELKETYRLRQVTFELMHSLGGVAKKAVPAYLERVAAGREGHHHHHH	not soluble
PHRPVQESVANAYDALGGYLEAKADFFDPDEAAWIGNRHIDLAMSNTGVITAFNQCRSALFYRLRGKHRHPRTAKMLRYYFAAQDIHERISSAHVDYQEMSEKFKNTDIIFRIHRLLEMQGQACRNTAQALRASKDYVYSKRLGRAIEGCRQSLRLLSDSNDSPDIRHLRRLLDNLGSVDQQFRQLQHNGLQAENDRMGDTRIAALETSSLKNTWQAIRPQLNLESGVFRH	not soluble
AIARSEWPFDYASEADAMLHRITPENFEKLVRFAARLLRVGEIIALPTDTVYGLAAAARNSHGIELLYQTKQRDLRKPLAIAVPSVEDVSVYLHTEHLPPGLLEAILPGPLTLLLRQREDYVGIDLQDVRIDQYRGWERAKRLAPNLNLRRDGLLGVRVPDASFACAVSRELGDPLALTSANVSGRGDCGSVDEFRALWSACAAVFDGGAMPKPVMPSTVVDLSVPGTFRITRAGWMATDLVRILENKFGLTNKSANTSN	soluble
MLQCGAKNVNPLERFVSSLPVAAVLPELLAALDGASQVLLSAPTGAGKSTWLPLQLLAHPGINGKIILLEPRRLAARNVAQRLAELLNEKPGDTVGYRMRAQNCVGPNTRLEVITEGVLTRMIQRDPELSGVGLVILDEFHERSLQADLALALLLDVQQGLRDDLKLLIMSA	not soluble
MEGDVLSGFGDRHNMDGKLLQSFQKSFVDVQDILDQNRLLINEINQNHESKQPDNLGRNVGLIKELNNNIRRVASLYGDLSHSFARSVDASSEGESSGTLKSDGKANQKRFRSGDGSLVPATDEEMLEVKNLLEKNEQDMPVLPDPIQTEEYIPDEGSPSQFLQLENFEGKTYCIHAKTDRISLGLHDKGIYWVTCNVGAINFTPPLKLLQSKEELMNGSQMLFVLPDTKFQISTELSGNVELVPSKVLLQEPILFSSNGCSINQSTDVLNATASPKEPALSTAASKPDFSRVPGEISLANLSIKELQETFRATFGRETTSKDKRWLKRRIKMGLINSCVVPTTTLTINDSKLIGGDQDAIDAFSKGTVDEETATESIDTPASPDGIKGHSNDFGHSPVETFVDHYSGNEDFEGEDGSAKRVRKPTRRYIEETNEKQQIDGSMIPSKDPSSIQAVSSEGRVVVTRMVSLAGSRIQVPYVSHVRRSRPRENIMALGEFRSKSWEVKAAPEEGNLNLSPPQLSNDVNRVPGVKSASRCVQKESDKDHLKPIFTDVDQEMMEPELLDSSGDSSDDNFVDAPITQSASGRKLHRAWTISEVEKLVEGVSKYGVGKWTEIKKLSFSPYTHRTTVDLKDKWRNLQKASSSNRMEGGLKKHGSMAIPTHIMLQVRELAQKQSPISRVVSKARVVKRSRSRNGFL	soluble
MQILNKILPQVEFAIPRPSFDSLSRNKLVKKILSVFNLKQRFPQKNFGCPVNINKIRDSVIDKIKDSNSGNQLFCWMSQERTTYVSSMINRSIDEMAIHNGVVLTSDNKRNIFAAIEKKFPDIKLDEKSAQTSISHTALNEIASSGLRAKILKRYSSDMDLFNTQMKDLTNLVSSSVYDKIFNESTKVLQIEISAEVLKAVYRQSNTNLEHHHHHH	not soluble
MSLSPAGGPDLAALAASSTSIDLPYLLAGVENENELDLYVVPSGKPVAVRAATFDSERQVYSLALDNPQRILTWTPASAPGGDEGNSTSLPLVPPGTVVYTGSSLNPVVTEQEGYPALDLLDQERLIITFPMDSGLPPILVVFKSPRYEAGTSTGHGLEHHHHHH	soluble
GPGSMHFPALFPEPLATAHASRLHPFPWSSSYESIFLCPPTSLCSSAASMTQPTLTEDELDDALGLAIRAANTAAFISNSVIDDKTNNIVEAQTRNNPNDLVTQCEKHCKEEVLNILRVGTPSYAILSDDMHSEAVLGDGPTWIVGPIDGTVSFKHGLFDFCISIALALRKEPILGVVCAPRLQEVFTAVNNRGAFSNGQRIHVSLVDSLRQSVVLLHHSGTRSDAAVRSVAAMQAELAKLPVQGLRCNGSAALDMCLVAAGRAELFWKAGVNPWNVAAGVIIVREAGGVVHDVESTDSFDLTCRSVCCGCSLDVTKHGVELSLKHNYRSSVLNTSS	not soluble
GPGSMGTRQSSASAAPAPQASNGALHLNKLNVPTPPRIAATESPFGSNTPLAKTPTPTAATATATAAVSGEHAKRFQEALRVDSVDMALLRELSWQGCPVALRYEAWMFLTGCWTAQAATRQATVLRRRVEYAAYIHSSYGIVDWDAVCAMVDSGVDTAVHRSTLKLLEHTADAPQVAPPSGTSHSLLRVAPLTTGDSTAMAAKEAAAALPPSLSQRPDGRQSASLPLEDVRSRLPQNTSGSDAPQPSQLSPPQSADIRSASPSLGIVPAPSDSSFRASASAGFTDTAGTGPASHPSIFAPPLPGFATLGLSNVVAATAAPPAASGGAGGATGHQLSASTMLGSKELQTLKQIRKDIPRMSGGHCYLRHPRVQGSIERILFIWSLRHPACGYVQGMNDLVVPFMGVVLGYRFCPTHSVTELHAYTEDIFDDLWSVSAVSVTQWINEVEADVYWMTSYLLNTMQDNYTSSHAGITSMMRHLAAVVQVADPPLYHRLVNVLQLHFEQFSFRWMNCLLIRELTETQSLRLLDAYLSDEERRWSVTHVYVCAALLLRWGSQLMAFCEDYISVMKLLQEPPTEQLSLRDMQDVLSEGFVLQNLYEASLKRLSTTAE	not soluble
MIKIAIPTSKGGLEDKVHESLVRAETFTLVEVKDGKIERIEVVENPHKNEPYGAGSKVAIFLVNNGVNILLTPMDCPKGKAILEAGGVKIIKVKQGKSVKEVIEAFQSSSSGYSLQ	soluble
MSLKITIYDLAELSGVSASAVSAILNGNWKKRRISAKLAEKVTRIAEEQGYAINRQASMLRSKKSHVIGMIIPKYDNRYFGSIAERFEEMARERGLLPIITCTRRRPELEIEAVKAMLSWQVDWVVATGATNPDKISALCQQAGVPTVNLDLPGSLSPSVISDNYGGAKALTHKILANSARRRGELAPLTFIGGRSSDHNTSERLRGFHDAHRELGLSVPQANILAPGYSKGHVEDCLQERFGSAKTLLQGIFVNSTISLEGVVRWLSQVGLTGSEQPPMGCFDWDPFVYLLGHDIDMVQQDVPAMLDAVFSIIDAGEASQQRIEIPPRLMSSSEGHHHHHH	soluble
